According to patent publication US20060257938A1, “Method of screening for drugs that block ligand binding to a lipid binding protein” (priority 2005, published 2006):
Several values for one entry are separate records, joined by “and”; a condition that tells them apart may be missing. Identical values can stand only once.

What was measured:
Type in all cases: binding
[1] = Probe fluorescence ratio response to arachidonic acid relative to ADIFAB2; conditions: arachidonic acid; response relative to ADIFAB2
In short: (§1)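 Each fatty acid's response was expressed relative to ADIFAB2, the rI-FABP-L72A probe, as ΔR/ΔRreference. ΔR is the change in the background-corrected two-wavelength intensity ratio R=Fλ1/Fλ2 from its analyte-free baseline R0. Emission was read near about 420-480 nm for unbound and about 495-580 nm for FFA-bound probe.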

[2] = Probe fluorescence ratio response to linolenic acid relative to ADIFAB2; conditions: response relative to ADIFAB2
In short: as §1

[3] = Probe fluorescence ratio response to linoleic acid relative to ADIFAB2; conditions: response relative to ADIFAB2
In short: as §1

[4] = Probe fluorescence ratio response to oleic acid relative to ADIFAB2; conditions: response relative to ADIFAB2
In short: as §1

[5] = Probe fluorescence ratio response to palmitic acid relative to ADIFAB2; conditions: response relative to ADIFAB2
In short: as §1

Molecule	DR/DR AA [1]	DR/DR LNA [2]	DR/DR LA [3]	DR/DR OA [4]	DR/DR PA [5]
17R, 72A (protein, listed as Rattus norvegicus, PEPTIDE (1)...(131) wild-type rat intestinal fatty acid binding protein) AFDGTWKVDRNENYEKRMEKMGINVVKRKLGAHDNLKLTITQEGNKFTVKESSNFRNIDVVFELGVDFAYSAADGTELTGTWTMEGNKLVGKFKRVDNGKELIAVREISGNELIQTYTYEGVEAKRIFKKE	0.43	0.48	0.52	0.45	0.22
23N1, 72A (protein, listed as Rattus norvegicus, PEPTIDE (1)...(131) wild-type rat intestinal fatty acid binding protein) AFDGTWKVDRNENYEKFMEKMGNNVVKRKLGAHDNLKLTITQEGNKFTVKESSNFRNIDVVFELGVDFAYSAADGTELTGTWTMEGNKLVGKFKRVDNGKELIAVREISGNELIQTYTYEGVEAKRIFKKE	0.12	0.13	0.13	0.12	0.10
17S, 72A (protein, listed as Rattus norvegicus, PEPTIDE (1)...(131) wild-type rat intestinal fatty acid binding protein) AFDGTWKVDRNENYEKSMEKMGINVVKRKLGAHDNLKLTITQEGNKFTVKESSNFRNIDVVFELGVDFAYSAADGTELTGTWTMEGNKLVGKFKRVDNGKELIAVREISGNELIQTYTYEGVEAKRIFKKE	0.50	0.61	0.56	0.47	0.25
23V2, 72A (protein, listed as Rattus norvegicus, PEPTIDE (1)...(131) wild-type rat intestinal fatty acid binding protein) AFDGTWKVDRNENYEKFMEKMGVNVVKRKLGAHDNLKLTITQEGNKFTVKESSNFRNIDVVFELGVDFAYSAADGTELTGTWTMEGNKLVGKFKRVDNGKELIAVREISGNELIQTYTYEGVEAKRIFKKE	1.46	1.35	1.73	1.56	1.48
23L3, 72A (protein, listed as Rattus norvegicus, PEPTIDE (1)...(131) wild-type rat intestinal fatty acid binding protein) AFDGTWKVDRNENYEKFMEKMGLNVVKRKLGAHDNLKLTITQEGNKFTVKESSNFRNIDVVFELGVDFAYSAADGTELTGTWTMEGNKLVGKFKRVDNGKELIAVREISGNELIQTYTYEGVEAKRIFKKE	1.17	1.03	1.04	1.06	0.93
17V, 72A (protein, listed as Rattus norvegicus, PEPTIDE (1)...(131) wild-type rat intestinal fatty acid binding protein) AFDGTWKVDRNENYEKVMEKMGINVVKRKLGAHDNLKLTITQEGNKFTVKESSNFRNIDVVFELGVDFAYSAADGTELTGTWTMEGNKLVGKFKRVDNGKELIAVREISGNELIQTYTYEGVEAKRIFKKE	0.64 and 0.639	0.59 and 0.586	0.55 and 0.549	0.56 and 0.558	0.31 and 0.308
17Y, 72A (protein, listed as Rattus norvegicus, PEPTIDE (1)...(131) wild-type rat intestinal fatty acid binding protein) AFDGTWKVDRNENYEKYMEKMGINVVKRKLGAHDNLKLTITQEGNKFTVKESSNFRNIDVVFELGVDFAYSAADGTELTGTWTMEGNKLVGKFKRVDNGKELIAVREISGNELIQTYTYEGVEAKRIFKKE	0.73 and 0.729	0.81 and 0.806	0.71 and 0.712	0.73 and 0.732	0.50
23K1, 72A (protein, listed as Rattus norvegicus, PEPTIDE (1)...(131) wild-type rat intestinal fatty acid binding protein) AFDGTWKVDRNENYEKFMEKMGKNVVKRKLGAHDNLKLTITQEGNKFTVKESSNFRNIDVVFELGVDFAYSAADGTELTGTWTMEGNKLVGKFKRVDNGKELIAVREISGNELIQTYTYEGVEAKRIFKKE	0.13	0.13	0.14	0.13	0.08
17W, 72A (protein, listed as Rattus norvegicus, PEPTIDE (1)...(131) wild-type rat intestinal fatty acid binding protein) AFDGTWKVDRNENYEKWMEKMGINVVKRKLGAHDNLKLTITQEGNKFTVKESSNFRNIDVVFELGVDFAYSAADGTELTGTWTMEGNKLVGKFKRVDNGKELIAVREISGNELIQTYTYEGVEAKRIFKKE	1.42 and 1.421	1.61 and 1.611	1.42 and 1.416	1.24 and 1.241	1.07 and 1.067
23P1, 72A (protein, listed as Rattus norvegicus, PEPTIDE (1)...(131) wild-type rat intestinal fatty acid binding protein) AFDGTWKVDRNENYEKFMEKMGPNVVKRKLGAHDNLKLTITQEGNKFTVKESSNFRNIDVVFELGVDFAYSAADGTELTGTWTMEGNKLVGKFKRVDNGKELIAVREISGNELIQTYTYEGVEAKRIFKKE	1.25	1.38	1.36	1.24	0.64
18Q, 72A (protein, listed as Rattus norvegicus, PEPTIDE (1)...(131) wild-type rat intestinal fatty acid binding protein) AFDGTWKVDRNENYEKFQEKMGINVVKRKLGAHDNLKLTITQEGNKFTVKESSNFRNIDVVFELGVDFAYSAADGTELTGTWTMEGNKLVGKFKRVDNGKELIAVREISGNELIQTYTYEGVEAKRIFKKE	0.09	0.13	0.11	0.08	0.09
17T, 72A (protein, listed as Rattus norvegicus, PEPTIDE (1)...(131) wild-type rat intestinal fatty acid binding protein) AFDGTWKVDRNENYEKTMEKMGINVVKRKLGAHDNLKLTITQEGNKFTVKESSNFRNIDVVFELGVDFAYSAADGTELTGTWTMEGNKLVGKFKRVDNGKELIAVREISGNELIQTYTYEGVEAKRIFKKE	0.50	0.51	0.51	0.49	0.25
23H1, 72A (protein, listed as Rattus norvegicus, PEPTIDE (1)...(131) wild-type rat intestinal fatty acid binding protein) AFDGTWKVDRNENYEKFMEKMGHNVVKRKLGAHDNLKLTITQEGNKFTVKESSNFRNIDVVFELGVDFAYSAADGTELTGTWTMEGNKLVGKFKRVDNGKELIAVREISGNELIQTYTYEGVEAKRIFKKE	0.16	0.17	0.13	0.11	0.13
23F2, 72A (protein, listed as Rattus norvegicus, PEPTIDE (1)...(131) wild-type rat intestinal fatty acid binding protein) AFDGTWKVDRNENYEKFMEKMGFNVVKRKLGAHDNLKLTITQEGNKFTVKESSNFRNIDVVFELGVDFAYSAADGTELTGTWTMEGNKLVGKFKRVDNGKELIAVREISGNELIQTYTYEGVEAKRIFKKE	0.22	0.17	0.19	0.20	0.12
23R3, 72A (protein, listed as Rattus norvegicus, PEPTIDE (1)...(131) wild-type rat intestinal fatty acid binding protein) AFDGTWKVDRNENYEKFMEKMGRNVVKRKLGAHDNLKLTITQEGNKFTVKESSNFRNIDVVFELGVDFAYSAADGTELTGTWTMEGNKLVGKFKRVDNGKELIAVREISGNELIQTYTYEGVEAKRIFKKE	0.14	0.14	0.14	0.12	0.10
23T1, 72A (protein, listed as Rattus norvegicus, PEPTIDE (1)...(131) wild-type rat intestinal fatty acid binding protein) AFDGTWKVDRNENYEKFMEKMGTNVVKRKLGAHDNLKLTITQEGNKFTVKESSNFRNIDVVFELGVDFAYSAADGTELTGTWTMEGNKLVGKFKRVDNGKELIAVREISGNELIQTYTYEGVEAKRIFKKE	0.22	0.21	0.33	0.19	0.24
21W, 72A (protein, listed as Rattus norvegicus, PEPTIDE (1)...(131) wild-type rat intestinal fatty acid binding protein) AFDGTWKVDRNENYEKFMEKWGINVVKRKLGAHDNLKLTITQEGNKFTVKESSNFRNIDVVFELGVDFAYSAADGTELTGTWTMEGNKLVGKFKRVDNGKELIAVREISGNELIQTYTYEGVEAKRIFKKE	3.70	2.40	2.43	3.02	1.45
